For this test, the target named is FGFR4 (human) (UniProt P22455). In words: ELISA; also printed 0.001 ug/mL.

The values that follow come from patent US20210230280A1.

FGFR4 (human), sequence (P22455 22-369): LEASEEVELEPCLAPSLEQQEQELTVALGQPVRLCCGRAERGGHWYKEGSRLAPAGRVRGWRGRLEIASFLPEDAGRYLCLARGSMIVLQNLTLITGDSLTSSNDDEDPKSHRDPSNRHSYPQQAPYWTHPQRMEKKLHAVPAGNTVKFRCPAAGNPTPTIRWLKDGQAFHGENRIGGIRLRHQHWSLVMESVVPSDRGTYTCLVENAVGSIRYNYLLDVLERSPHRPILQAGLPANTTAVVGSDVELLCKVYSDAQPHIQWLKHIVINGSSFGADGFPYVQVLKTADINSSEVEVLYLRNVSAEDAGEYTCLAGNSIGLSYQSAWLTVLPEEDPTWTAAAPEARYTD

What is called Kd is the concentration at which binding is half-saturated. Consider ab41948, for which the Kd is 0.07 nM.
